Results on three substances are retold here after publication PMC3043095.

In assay [1] the target is leafhopper actin (Circulifer haematoceps, Ciha-1 cells) (Circulifer haematoceps (endogenous in Ciha-1)).
The target is the same in assay [2]. This is another data set of the same source.

On to “His6-tagged PGK-FL4 (S. citri PGK amino acids 101 to 412) (from UniProt Q7WTU1 101-412) (domain or fragment)”, for which the S. citri transmission by infected leafhoppers injected with 0.2 µg PGK-FL4: relative percentage of batches with positive culture (phosphate buffer = 100) (% relative to phosphate buffer control) in assay [1] stood at 101.
In turn, “Spiroplasma citri phosphoglycerate kinase, His6-tagged, full length (from UniProt Q7WTU1 1-412) (enzyme)” had a S. citri transmission by infected leafhoppers injected with 0.2 µg His6-tagged PGK: relative percentage of batches with positive culture (phosphate buffer = 100) (% relative to phosphate buffer control) in assay [1] of 51.7. Besides, the inhibition of S. citri internalization into Ciha-1 cells (gentamicin protection assay) after preincubation of cells with 400 µg/ml His6-tagged PGK (% inhibition of invasion) in assay [2] was 85.
For the substance “His6-tagged PGK-FL5 (S. citri PGK amino acids 49 to 154) (from UniProt Q7WTU1 49-154) (domain or fragment)”, the S. citri transmission by infected leafhoppers injected with 0.2 µg PGK-FL5: relative percentage of batches with positive culture (phosphate buffer = 100) (% relative to phosphate buffer control) in assay [1] was found to be 58.6. Also, the reduction of S. citri internalization into Ciha-1 cells (gentamicin protection assay) after preincubation of cells with 50 and 400 µg/ml PGK-FL5 (45% and 80%) (% reduction of internalization) in assay [2] is 80.
